Test results as given in publication PMC6884526 (2019).

Biological target: MBP-TrkB-454-821 (Rattus norvegicus (Rat), UniProt Q63604)
Assay: pull-down (MBP-TrkB on amylose resin, GST-ActI-SIPA1L2 prey, immunoblot)

MBP-TrkB-454-821, sequence (Q63604 454-821): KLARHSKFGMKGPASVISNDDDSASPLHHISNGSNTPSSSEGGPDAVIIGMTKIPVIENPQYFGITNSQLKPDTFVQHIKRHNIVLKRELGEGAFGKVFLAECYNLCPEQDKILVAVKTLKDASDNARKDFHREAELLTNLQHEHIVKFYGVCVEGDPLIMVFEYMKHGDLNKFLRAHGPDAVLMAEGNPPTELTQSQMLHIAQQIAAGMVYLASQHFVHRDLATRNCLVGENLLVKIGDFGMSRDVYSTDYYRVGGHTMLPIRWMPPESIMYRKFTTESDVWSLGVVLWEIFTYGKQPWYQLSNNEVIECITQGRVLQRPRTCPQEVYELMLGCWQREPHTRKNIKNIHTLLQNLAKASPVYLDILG

binding result: binds
B1: GST-ActI-SIPA1L2-1-624 (protein)
chain: MSDPRPSQAEKHKLGRAASKFKDPSRAMQSDDYFARKFKAINGSMGPATLNTSSLSEGGGGGGGPANGTPAVPKMGVRARVSEWPPKKDCSKDLACKTLWESRSQSSYESATSIIQNGQNDQVDRQQEEQLDLDFVEAKYTIGDIFVHSPQRGLHPIRQRSNSDITISDIDTEDVLDQHAVNPNTGAALHREYGSTSSIDRQGLSGENVFAMLRGYRIESYDPKVTSSFGFPDFFPCDTAISPSLHAAAQISRGEFVRISGLDYMDGGLLMGRDRDKPFKRRLKSESVETSLFRKLRTVKSEHETFKFTSDLEEGRLDRGIRPWSCQRCFAHYDVQSILFNINEAMATRASVGKRKNITTGASAASQTPVPVGPAGGCESPLGSKEDLNAKENPDADEGDGKSNDLVLSCPYFRNETGGEGDRRIALSRANSASFSSGESCSFESSLSSHCTNAGVSVLEVPRENQPIHREKVKRYIIEHVDLGAYYYRKFFYGKEHQNYFGIDENLGPVAVSIRREKVEDPREKEGSQFNYRVAFRTSELTTLRGAILEDAVPSTARHGTARGLPLKEVLEYVIPELSIPCLRQAANSPKVPEQLLKLDEQGLSFQHKIGILYCKAGQSTEEE
